Here are results for 61 substances from US11230581B2, “Peptides and combination of peptides for use in immunotherapy against ovarian cancer and other cancers” (Immatics Biotechnologies GmbH, priority 2015, dated 2022).

This assay deals with HLA-A*02:01 (Homo sapiens, UniProt P04439, D140Y/D185E/D98H/E176V/E277Q/G131W/G231S/I119V/I121R/I166T/I218V/L300P/L318F/N151K/N90K/P208A/P217A/Q86G/Q94H/R138H/R169H/T345S). Put plainly: MHC binding assay (UV-ligand exchange, β2m ELISA, peptide exchange yield). The settings on record: binding of HLA-class I restricted peptides to HLA-A*02:01, UV-ligand exchange. The procedure, abridged: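 Yield of stabilized complexes quantified via the β2m light chain in an ELISA (streptavidin capture, 100-fold diluted monomers, HRP anti-β2m 2 ug/ml at 37 °C, TMB, A450). The complexes come from UV-triggered replacement of a photocleavable ligand by the candidate peptide.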
With “447 (QLVPALAKV; listed as Homo sapiens) [compound 447]”, the “Peptide exchange (MHC class I binding score, peptide exchange yield)” value (“Peptide exchange” below) is given as ““++” (≥20% = ++)”.
Consider “448 (NLLETKLQL; listed as Homo sapiens) [compound 448]”, for which the “Peptide exchange” value is on record as ““+++” (≥50 = +++)”.
Then “449 (KLAEGLDIQL; listed as Homo sapiens) [compound 449]”, with ““+++” (≥50 = +++)”; and “450 (FMIDASVHPTL; listed as Homo sapiens) [compound 450]”, with ““+++” (≥50 = +++)”; and “451 (LLLLDTVTMQV; listed as Homo sapiens) [compound 451]”, with ““++” (≥20% = ++)”.
Then “452 (ILLEHGADPNL; listed as Homo sapiens) [compound 452]”, with ““+++” (≥50 = +++)”; and “453 (KLLEATSAV; listed as Homo sapiens) [compound 453]”, with ““++” (≥20% = ++)”; and “454 (KLPPPPPQA; listed as Homo sapiens) [compound 454]”, with ““+++” (≥50 = +++)”.
Then “455 (SLLKEPQKVQL; listed as Homo sapiens) [compound 455]”, with ““++” (≥20% = ++)”; and “456 (LLIGHLERV; listed as Homo sapiens) [compound 456]”, with ““+++” (≥50 = +++)”.
As to “457 (SLLPGNLVEKV; listed as Homo sapiens) [compound 457]”, the “Peptide exchange” value is recorded as ““+++” (≥50 = +++)”.
Then “458 (SLIDKLYNI; listed as Homo sapiens) [compound 458]”, with ““++” (≥20% = ++)”; and “459 (ALITEVVRL; listed as Homo sapiens) [compound 459]”, with ““++” (≥20% = ++)”.
Then “460 (AMLEKNYKL; listed as Homo sapiens) [compound 460]”, with ““++++” (≥75% = ++++)”.
Then “461 (VMFRTPLASV; listed as Homo sapiens) [compound 461]”, with ““++” (≥20% = ++)”; and “462 (KLAKQPETV; listed as Homo sapiens) [compound 462]”, with ““+++” (≥50 = +++)”.
Regarding “463 (SLVESHLSDQLTL; listed as Homo sapiens) [compound 463]”, the “Peptide exchange” value is ““+++” (≥50 = +++)”.
Then “464 (ALNDCIYSV; listed as Homo sapiens) [compound 464]”, with ““+++” (≥50 = +++)”.
Then “465 (QLCDLNAEL; listed as Homo sapiens) [compound 465]”, with ““+++” (≥50 = +++)”.
Then “466 (VLIANLEKL; listed as Homo sapiens) [compound 466]”, with ““++++” (≥75% = ++++)”; and “467 (FLAKDFNFL; listed as Homo sapiens) [compound 467]”, with ““+++” (≥50 = +++)”; and “468 (YLRSVGDGETV; listed as Homo sapiens) [compound 468]”, with ““+++” (≥50 = +++)”.
Take “469 (YLASDEITTV; listed as Homo sapiens) [compound 469]”: the “Peptide exchange” value is given as ““+++” (≥50 = +++)”.
Take “471 (YLYNNMIAKI; listed as Homo sapiens) [compound 471]”: the “Peptide exchange” value was ““+++” (≥50 = +++)”.
“472 (KLLEVSDDPQV; listed as Homo sapiens) [compound 472]”: the “Peptide exchange” value is on record as ““+++” (≥50 = +++)”.
With “473 (AMATESILHFA; listed as Homo sapiens) [compound 473]”, the “Peptide exchange” value was ““+++” (≥50 = +++)”.
For the substance “474 (YLDPALELGPRNV; listed as Homo sapiens) [compound 474]”, the “Peptide exchange” value is ““+++” (≥50 = +++)”.
Then “475 (LLLNEEALAQI; listed as Homo sapiens) [compound 475]”, with ““+++” (≥50 = +++)”; and “476 (ALMERTGYSMV; listed as Homo sapiens) [compound 476]”, with ““+++” (≥50 = +++)”; and “477 (ALLPASGQIAL; listed as Homo sapiens) [compound 477]”, with ““+++” (≥50 = +++)”.
Then “478 (YLLHEKLNL; listed as Homo sapiens) [compound 478]”, with ““+++” (≥50 = +++)”.
“479 (SLFGNSGILENV; listed as Homo sapiens) [compound 479]”: the “Peptide exchange” value is on record as ““+++” (≥50 = +++)”.
Then “480 (ALLEDSCHYL; listed as Homo sapiens) [compound 480]”, with ““+++” (≥50 = +++)”.
With “481 (GLIEDYEALL; listed as Homo sapiens) [compound 481]”, the “Peptide exchange” value is given as ““+++” (≥50 = +++)”.
Then “484 (SLIEKVTQL; listed as Homo sapiens) [compound 484]”, with ““+++” (≥50 = +++)”; and “485 (NVPDSFNEV; listed as Homo sapiens) [compound 485]”, with ““+++” (≥50 = +++)”.
Then “486 (AVMESIQGV; listed as Homo sapiens) [compound 486]”, with ““+++” (≥50 = +++)”; and “487 (LLINSVFHV; listed as Homo sapiens) [compound 487]”, with ““+++” (≥50 = +++)”.
Then “488 (FLAEDPKVTL; listed as Homo sapiens) [compound 488]”, with ““+++” (≥50 = +++)”; and “489 (KMWEELPEVV; listed as Homo sapiens) [compound 489]”, with ““+++” (≥50 = +++)”.
Consider “490 (FLLQHVQEL; listed as Homo sapiens) [compound 490]”, for which the “Peptide exchange” value was ““+++” (≥50 = +++)”.
With “491 (GLNDRSDAV; listed as Homo sapiens) [compound 491]”, the “Peptide exchange” value is given as ““++” (≥20% = ++)”.
For the substance “492 (SLFDGFADGLGV; listed as Homo sapiens) [compound 492]”, the “Peptide exchange” value was ““+++” (≥50 = +++)”.
Then “493 (GLLGEKTQDLIGV; listed as Homo sapiens) [compound 493]”, with ““+++” (≥50 = +++)”; and “494 (ALQPEPIKV; listed as Homo sapiens) [compound 494]”, with ““++” (≥20% = ++)”.
As to “495 (FIFSEKPVFV; listed as Homo sapiens) [compound 495]”, the “Peptide exchange” value is listed as ““+++” (≥50 = +++)”.
Take “496 (FLVEKQPPQV; listed as Homo sapiens) [compound 496]”: the “Peptide exchange” value is on record as ““+++” (≥50 = +++)”.
Then “497 (GLLEKLTAI; listed as Homo sapiens) [compound 497]”, with ““+++” (≥50 = +++)”.
Then “498 (KLWTGGLDNTV; listed as Homo sapiens) [compound 498]”, with ““+++” (≥50 = +++)”; and “499 (KIFDIDEAEEGV; listed as Homo sapiens) [compound 499]”, with ““++” (≥20% = ++)”; and “500 (SLMEDQVLQL; listed as Homo sapiens) [compound 500]”, with ““+++” (≥50 = +++)”.
Then “501 (LLDPNVKSIFV; listed as Homo sapiens) [compound 501]”, with ““+++” (≥50 = +++)”; and “502 (RLLAQVPGL; listed as Homo sapiens) [compound 502]”, with ““+++” (≥50 = +++)”; and “503 (SLNHFTHSV; listed as Homo sapiens) [compound 503]”, with ““+++” (≥50 = +++)”.
Regarding “504 (GLSDGNPSL; listed as Homo sapiens) [compound 504]”, the “Peptide exchange” value is reported as ““++” (≥20% = ++)”.
Turning to “505 (SLAPGDVVRQV; listed as Homo sapiens) [compound 505]”, the “Peptide exchange” value is ““++” (≥20% = ++)”.
Then “506 (KLLGKVETA; listed as Homo sapiens) [compound 506]”, with ““+++” (≥50 = +++)”.
For “507 (KLIDDQDISISL; listed as Homo sapiens) [compound 507]”, the “Peptide exchange” value is ““+++” (≥50 = +++)”.
Then “508 (ILAQEQLVVGV; listed as Homo sapiens) [compound 508]”, with ““+++” (≥50 = +++)”.
Then “509 (FLFDTKPLIV; listed as Homo sapiens) [compound 509]”, with ““+++” (≥50 = +++)”.
“510 (KLYSVVSQL; listed as Homo sapiens) [compound 510]”: the “Peptide exchange” value is on record as ““++” (≥20% = ++)”.
